{
  "source": "paper PMC2857867",
  "binders": {"B1": {"name": "hIL-29, Q8IU54 20-200 (ligand)", "chain": "GPVPTSKPTTTGKGCHIGRFKSLSPQELASFKKARDALEESLKLKNWSCSSPVFPGNWDLRLLQVRERPVALEAELALTLKVLEAAAGPALEDVLDQPLHTLHHILSQLQACIQPQPTAGPRPRGRLHHWLHRLQEAPKKESAGCLEASVTFNLFRLLTRDLKYVADGNLCLRTSTHPEST"}},
  "molecular_target": "VACV strain WR IFNα/βBP B18 (vaccinia virus strain Western Reserve), P25213",
  "assay": "SPR",
  "details": "remark: other sources report otherwise",
  "data": [
    {"binder": "B1", "values": [
      {"measurement": "Kd", "result": 13.5, "unit": "nM"},
      {"measurement": "kon", "result": 193000, "unit": "M⁻¹ s⁻¹"}
    ]}
  ]
}
